Data published in publication PMC4537050, “A long pentraxin-3-derived pentapeptide for the therapy of FGF8b-driven steroid hormone-regulated cancers” (Oncotarget, 2015).

What was measured:
Assay in all cases: SPR; BIAcore X-100; FGF8b (20 μg/ml in 10 mM sodium acetate, pH 6.0) or other FGFs (10 mM sodium acetate at optimal pH) immobilised on a CM5 sensor chip by EDC/NHS; peptide injected (ARPCA 8 μM to 2000 μM), 4 min at 30 μl/min, 10 min dissociation, in HBS; equilibrium values fitted with the Langmuir equation for monovalent binding
Conditions in all cases: both partners purified
FGF17 = biological target: T1, FGF17 (UniProt O60258 23-216)
T1 construct: fibroblast growth factor 17 (FGF17)
T1 sequence (looked up): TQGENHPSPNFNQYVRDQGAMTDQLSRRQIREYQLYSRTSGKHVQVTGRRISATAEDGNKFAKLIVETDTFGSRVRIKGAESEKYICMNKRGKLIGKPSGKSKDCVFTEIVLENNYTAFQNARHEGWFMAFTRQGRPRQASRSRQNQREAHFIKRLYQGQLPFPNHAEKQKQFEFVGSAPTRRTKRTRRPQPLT

FGF18 = biological target: T2, FGF18 (UniProt O76093 28-207)
T2 construct: fibroblast growth factor 18 (FGF18)
T2 sequence (looked up): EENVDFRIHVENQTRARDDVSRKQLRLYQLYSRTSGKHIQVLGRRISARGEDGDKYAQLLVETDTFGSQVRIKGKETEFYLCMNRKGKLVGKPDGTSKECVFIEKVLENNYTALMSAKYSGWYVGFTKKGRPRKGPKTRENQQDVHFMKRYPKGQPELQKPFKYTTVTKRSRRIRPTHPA

FGF16 = biological target: T3, FGF16 (UniProt O43320 1-207)
T3 construct: fibroblast growth factor 16 (FGF16)

FGF7 = biological target: T4, FGF7 (UniProt P21781 32-194)
T4 construct: fibroblast growth factor 7 (FGF7)
T4 sequence (looked up): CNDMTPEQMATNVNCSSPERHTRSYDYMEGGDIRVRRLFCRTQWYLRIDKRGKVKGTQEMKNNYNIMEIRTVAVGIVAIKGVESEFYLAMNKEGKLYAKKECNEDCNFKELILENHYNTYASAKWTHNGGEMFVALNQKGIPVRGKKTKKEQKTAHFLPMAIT

FGF20 = biological target: T5, FGF20 (UniProt Q9NP95 1-211)
T5 construct: fibroblast growth factor 20 (FGF20)

FGF5 = biological target: T6, FGF5 (UniProt P12034 21-268)
T6 construct: fibroblast growth factor 5 (FGF5)
T6 sequence (looked up): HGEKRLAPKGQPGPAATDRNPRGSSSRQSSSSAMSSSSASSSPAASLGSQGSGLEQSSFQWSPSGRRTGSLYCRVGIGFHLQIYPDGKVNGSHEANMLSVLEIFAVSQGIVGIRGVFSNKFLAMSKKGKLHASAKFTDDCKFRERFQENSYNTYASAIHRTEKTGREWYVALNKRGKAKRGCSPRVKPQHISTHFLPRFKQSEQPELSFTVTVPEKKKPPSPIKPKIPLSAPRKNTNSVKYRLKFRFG

FGF22 = biological target: T7, FGF22 (UniProt Q9HCT0 23-170)
T7 construct: fibroblast growth factor 22 (FGF22)
T7 sequence (looked up): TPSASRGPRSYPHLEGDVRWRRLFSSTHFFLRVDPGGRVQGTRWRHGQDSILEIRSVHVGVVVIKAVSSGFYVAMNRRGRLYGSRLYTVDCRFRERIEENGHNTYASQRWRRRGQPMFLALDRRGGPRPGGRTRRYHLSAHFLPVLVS

T5 sequence (Q9NP95 whole entry): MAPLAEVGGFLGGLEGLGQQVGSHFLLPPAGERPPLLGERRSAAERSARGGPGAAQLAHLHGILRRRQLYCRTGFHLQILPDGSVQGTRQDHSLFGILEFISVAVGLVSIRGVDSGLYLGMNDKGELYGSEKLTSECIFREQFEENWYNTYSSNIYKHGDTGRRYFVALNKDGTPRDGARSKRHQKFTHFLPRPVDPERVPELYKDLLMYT

Kd (FGF17): 476 µM
Kd (FGF18): 26 µM
Kd (FGF16): 112 µM
Kd (FGF7): 885 µM
Kd (FGF20): 264 µM
Kd (FGF5): 299 µM
Kd (FGF22): 129 µM
B1: Ac-ARPCA-NH2, acetylated pentapeptide corresponding to PTX3(100-104) (peptide)
peptide: Ac-ARPCA-NH2
notes: long pentraxin-3 (PTX3), residues 100-104 of the N-terminal extension; source: synthetic peptide, provided by R. Longhi and A. Gori (CNR, Milano, Italy)
